Measured values from patent US7422862B2, “Methods for identifying modulators of apoptosis” (The Burnham Institute, priority 2001, dated 2008).

Columns and labels:
Format in all cases: cell-based
[1] = target: Bax (Homo sapiens, UniProt Q07812); assay: Suppression of apoptosis induced by Bax over-expression (Humanin mutants); set-up: expressed in transfected cells; host or cells: HEK293T; details: GFP-fusion polypeptides, 3:1 ratio of HN:Bax plasmid DNA
Method: Apoptosis assays were performed as follows. Both floating and adherent cells (after trypsinization) were collected 48 hr after transfection, fixed, and stained using 4′,6-diamidine-2′-phenylindole dihydrochloride (DAPI) for assessing apoptosis based on nuclear fragmentation and chromatin condensation (Fields and Song, supra (1989)).
In order to explore whether a correlation exists between Humanin binding to Bax and Humanin-mediated suppression of apoptosis, Bax was co-expressed with various GFP-fusion polypeptides encoding wild-type, full-length Humanin or various truncation and site-specific mutants of Humanin (Table 1). Expression of all GFP-fusion polypeptides was confirmed by immunoblotting, and ability to bind Bax was determined by co-immunoprecipitation assay. Each Humanin mutant was scored for ability to suppress apoptosis induced by Bax over-expression by >50% using a 3:1 ratio of HN:Bax plasmid DNA. […] Based on these studies, an active region of the 24 amino-acid Humanin peptide, mapped to residues 7-17.
Cell culture and transfections were performed as follows. CSM14.1, HCT116, Cos-7, and SF268 cells were cultured in DMEM high glucose media (Irvine Scientific, Santa Ana, Calif.) containing 10% fetal bovine serum (FBS). PC-3 cells were cultured with RPMI 1640 media containing 10% FBS. Transfection of cells was performed using SuperFect (Qiagen, Chatsworth, Calif.) or LipofectaminePLUS reagent ([…]).

[2] = test system: endogenous Bax protein; assay: Subcellular fractionation and immunoblot of endogenous Bax after STS; details: Cos7 cells, untagged peptides, STS
Method: (A-B) Humanin peptide prevents STS-induced Bax translocation in vivo. Cos-7 cells were first transfected with GFP-Bax plasmids. After 24 hrs, untagged wild-type or C8P mutant Humanin peptides were introduced into cells using ChariotTM reagent, and 2 h later cells were treated with 1 μM STS. After 4 h, the percentage of cells with translocated Bax was determined (mean±SD; n=3) by confocal microscopy (A) and representative photomicrographs (B). (C) Wild-type or C8P mutant Humanin peptides were introduced into Cos7 cells using ChariotTM reagent. Cytosolic (C) and mitochondria-containing (M) fractions were isolated by differential centrifugation 23 and analyzed by immunoblotting using anti-Bax (top), Hsp60 (middle) (mitochondrial marker), or Tubulin (bottom) (cytosol marker) antibodies. (D) HN or mutant control double-strand siRNAs were transfected into SF268 cells. After 48 h, cells were cultured without (Control) or with 0.1 uM STS. After 24 hr, cells were fractionated and analyzed by immunoblotting as above. […] After 3 h at 30° C., mitochondria were centrifuged and the resulting pellets (P) and supernatants (S) were analyzed by immunoblotting using anti-Cytochrome c (top), Hsp60 (middle), and Bax (bottom) antibodies. […]
These findings were also confirmed by subcellular fractionation, where cytosol and mitochondria-enriched heavy membrane preparations were prepared from Cos7 cells transduced with untagged Humanin or Humanin(C8P) peptides, and the relative amounts of endogenous Bax protein in these two fractions were measured by immunoblot analysis of samples normalized for cell-equivalents. […] Differences in the relative potency of Humanin at blocking Bax translocation as measured by microscopy (FIG. 7A) versus cell fractionation methods (FIG. 7C) can be explained by differences in the sensitivity of the assays, or could possibly indicate that even in cells where some Bax translocation has occurred, less of the total Bax protein associated with mitochondria. […]

[3] = target: T1, t-Bid (Homo sapiens, UniProt P55957); assay: Bid-induced apoptosis in CSM14.1 cells (DAPI staining); set-up: expressed in transfected cells; host or cells: CSM14.1 rat hippocampal neuronal cells; details: 24 hours after transfection
T1 sequence (P55957 61-195 limits assumed): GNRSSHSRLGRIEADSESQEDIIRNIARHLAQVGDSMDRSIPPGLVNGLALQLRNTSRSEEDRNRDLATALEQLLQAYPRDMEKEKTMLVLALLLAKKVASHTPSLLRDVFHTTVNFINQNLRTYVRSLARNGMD
Method: Apoptosis was examined by DAPI staining. The data shown were obtained using the cytosolic form of Humanin; however, both cytosolic and mitochondrial forms of Humanin were tested and the results were the same.
Rat neuronal cell line CSM14.1 cells were transfected with various plasmids using the Lipofectamine reagent (Invitrogen). For transfection, 10×10^5 cells were plated per well using 6 well plates. Each well received 1 μg DNA plus […] of Lipofectamine. After 24 hours of transfection, the percentage of cell death was determined using 4′-6-diamidino-2-phenylindole (DAPI) staining. […] The data shown were obtained using the cytosolic form of Humanin; however, both cytosolic and mitochondrial forms of Humanin were tested and the results were the same.

Bax, sequence (Q07812 whole entry, species assumed, the tested form may be a part): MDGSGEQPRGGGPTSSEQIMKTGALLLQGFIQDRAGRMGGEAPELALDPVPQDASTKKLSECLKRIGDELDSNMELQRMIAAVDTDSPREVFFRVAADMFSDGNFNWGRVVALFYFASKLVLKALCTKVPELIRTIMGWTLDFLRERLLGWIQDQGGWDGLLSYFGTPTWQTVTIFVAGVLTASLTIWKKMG

Substance | Bax suppression [1] | Bax translocation by subcellular fractionation [2] | Bid-induced apoptosis [3]
GFP-HN: Wild-type full-length Humanin fused to Green Fluorescent Protein | + (ability to suppress apoptosis induced by Bax over-expression by >50%) |  | 
Humanin: 24 amino acid polypeptide, cytosolic form of human Humanin (SEQ ID NO:2); used as synthetic peptide or expressed fusion |  | reduced | decreased
